Molecular target: the molecule itself
Assay: SEC

B1: Thermus thermophilus exonuclease I (TTHB178) (enzyme, Thermus thermophilus HB8, UniProt Q53VZ1 1-296, looked up)
chain: MAFGVSHPVALDLEATSTDPSEAEVLEVAAVDGEGRVFHRYLATQRPLPPDHEVFQLTGIPYEEYEAKKVAPKEALEELLAFLGGRPLLGHNLLRYDLPLLQRHLEEAGLPRWQGEALDTLRLAHLLFPTPPGGLEGYRLGDLYAFLLGRPLEGAHRALNDAQATLAVFHRLLDRGRRALAQHPGLVRAWRELGLPEGHLFPEDEGLIKDLLAREADVEAFFVEKEGRPFPAPTDLGPDLLPKPRPAQRIKEFVQVAHGVAGQGLVGRERPLHEVLERGLRLAVGEAEEGAVEKEG
  stoichiometry N: 2
